Earlier results, collected in paper PMC8043720.
pKd: −log10 of the molar value.

Biological target: NaV1.7 (Homo sapiens) (UniProt Q15858)
Chain of UniProt Q15858 (Q15858 whole entry): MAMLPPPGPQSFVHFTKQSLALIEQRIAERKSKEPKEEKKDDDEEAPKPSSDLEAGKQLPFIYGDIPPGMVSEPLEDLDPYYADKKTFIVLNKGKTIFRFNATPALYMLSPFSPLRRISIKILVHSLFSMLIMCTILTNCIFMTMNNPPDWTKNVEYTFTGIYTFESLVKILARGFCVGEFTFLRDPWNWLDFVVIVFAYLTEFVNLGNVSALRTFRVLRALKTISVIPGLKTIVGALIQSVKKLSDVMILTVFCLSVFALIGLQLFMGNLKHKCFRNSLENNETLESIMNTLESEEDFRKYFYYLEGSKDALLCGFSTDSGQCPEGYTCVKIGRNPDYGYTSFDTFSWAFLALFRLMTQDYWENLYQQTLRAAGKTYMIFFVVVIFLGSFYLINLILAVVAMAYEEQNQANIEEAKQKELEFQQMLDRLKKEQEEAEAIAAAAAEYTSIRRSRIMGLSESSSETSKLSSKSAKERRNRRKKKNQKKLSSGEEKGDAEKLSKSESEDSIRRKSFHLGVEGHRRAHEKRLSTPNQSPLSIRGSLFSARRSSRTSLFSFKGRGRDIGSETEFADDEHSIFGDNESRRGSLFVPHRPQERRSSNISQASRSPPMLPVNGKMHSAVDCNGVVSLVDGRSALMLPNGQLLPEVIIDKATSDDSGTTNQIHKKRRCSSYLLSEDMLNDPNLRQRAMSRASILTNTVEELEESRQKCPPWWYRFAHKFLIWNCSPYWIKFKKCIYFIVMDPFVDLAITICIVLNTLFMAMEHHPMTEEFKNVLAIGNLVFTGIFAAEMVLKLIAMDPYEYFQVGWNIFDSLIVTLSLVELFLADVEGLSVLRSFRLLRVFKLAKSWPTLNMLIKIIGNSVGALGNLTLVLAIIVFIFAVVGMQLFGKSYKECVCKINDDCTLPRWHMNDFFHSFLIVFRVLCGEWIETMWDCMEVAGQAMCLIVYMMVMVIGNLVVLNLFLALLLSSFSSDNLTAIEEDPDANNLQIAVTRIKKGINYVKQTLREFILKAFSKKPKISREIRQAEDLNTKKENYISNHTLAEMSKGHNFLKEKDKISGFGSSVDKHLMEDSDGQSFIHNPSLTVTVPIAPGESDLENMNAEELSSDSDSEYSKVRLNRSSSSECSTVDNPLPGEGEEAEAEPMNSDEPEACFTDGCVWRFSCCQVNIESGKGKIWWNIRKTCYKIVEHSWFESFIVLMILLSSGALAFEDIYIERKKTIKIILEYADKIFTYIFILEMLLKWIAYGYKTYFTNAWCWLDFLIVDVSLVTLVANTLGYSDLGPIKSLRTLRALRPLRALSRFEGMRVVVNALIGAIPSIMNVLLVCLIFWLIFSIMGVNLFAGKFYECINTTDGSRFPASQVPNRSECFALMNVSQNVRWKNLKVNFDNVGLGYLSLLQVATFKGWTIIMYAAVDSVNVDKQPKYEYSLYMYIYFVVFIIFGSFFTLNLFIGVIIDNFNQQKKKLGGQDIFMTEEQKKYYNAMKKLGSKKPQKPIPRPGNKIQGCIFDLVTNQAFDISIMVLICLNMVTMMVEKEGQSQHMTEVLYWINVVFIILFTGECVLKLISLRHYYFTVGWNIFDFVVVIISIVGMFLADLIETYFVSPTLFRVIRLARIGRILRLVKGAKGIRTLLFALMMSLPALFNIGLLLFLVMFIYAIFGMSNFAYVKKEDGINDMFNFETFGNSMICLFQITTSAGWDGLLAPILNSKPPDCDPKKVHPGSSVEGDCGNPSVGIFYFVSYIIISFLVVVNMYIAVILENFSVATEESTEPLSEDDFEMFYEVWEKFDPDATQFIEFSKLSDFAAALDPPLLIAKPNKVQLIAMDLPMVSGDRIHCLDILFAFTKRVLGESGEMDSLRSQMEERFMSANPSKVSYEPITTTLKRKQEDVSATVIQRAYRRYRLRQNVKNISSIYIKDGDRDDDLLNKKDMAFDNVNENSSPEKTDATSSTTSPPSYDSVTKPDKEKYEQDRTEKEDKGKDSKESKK

Q: With HwTx-IV (from UniProt P83303) as the substance, how does the pKd read?
A: 7.59
